Results published in PMC4230587.

Molecular target: RSA-2 (C. elegans (endogenous in embryos)) (UniProt G5EFV3)
Assay: co-IP

Chain of UniProt G5EFV3 (G5EFV3 whole entry): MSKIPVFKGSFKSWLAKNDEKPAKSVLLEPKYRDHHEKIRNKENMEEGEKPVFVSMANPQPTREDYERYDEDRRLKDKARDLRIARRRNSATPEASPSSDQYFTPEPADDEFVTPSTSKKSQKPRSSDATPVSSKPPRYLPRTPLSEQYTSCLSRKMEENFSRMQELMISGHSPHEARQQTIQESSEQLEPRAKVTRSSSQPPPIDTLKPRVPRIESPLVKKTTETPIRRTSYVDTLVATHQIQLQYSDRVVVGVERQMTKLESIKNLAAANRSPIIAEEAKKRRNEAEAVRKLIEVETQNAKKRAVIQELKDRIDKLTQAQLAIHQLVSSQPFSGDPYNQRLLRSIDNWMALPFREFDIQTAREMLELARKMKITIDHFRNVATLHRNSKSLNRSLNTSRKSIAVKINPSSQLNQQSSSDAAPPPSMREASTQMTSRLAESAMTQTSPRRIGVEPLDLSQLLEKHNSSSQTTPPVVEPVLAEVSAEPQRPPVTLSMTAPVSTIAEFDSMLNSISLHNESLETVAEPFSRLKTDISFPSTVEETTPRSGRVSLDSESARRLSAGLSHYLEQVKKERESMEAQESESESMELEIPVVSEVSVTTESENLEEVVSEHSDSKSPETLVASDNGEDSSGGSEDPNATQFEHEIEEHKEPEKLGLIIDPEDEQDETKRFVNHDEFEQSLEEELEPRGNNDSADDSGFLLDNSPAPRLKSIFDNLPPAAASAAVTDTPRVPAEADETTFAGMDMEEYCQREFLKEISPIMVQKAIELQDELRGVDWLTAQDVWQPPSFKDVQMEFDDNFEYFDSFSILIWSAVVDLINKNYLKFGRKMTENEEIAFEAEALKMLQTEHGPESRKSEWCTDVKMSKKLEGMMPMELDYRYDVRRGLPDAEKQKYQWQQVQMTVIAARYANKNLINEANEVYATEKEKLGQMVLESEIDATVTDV

percent of total protein co-immunoprecipitated: 20%
Substance: SPD-5 (from UniProt P91349 1-1198) (natural protein)
